Test results as given in publication PMC9637641.

Tests used:
OG488-TFPIα-BR [1] = test: fluorescence polarisation; steady-state fluorescence anisotropy; FV species or APCi titrated (0–100 nM) into 25 nM OG488-TFPIα-BR and 50 μM PCPS vesicles in HBS/Ca2+/PEG, pH 7.4 (20 mM Hepes, 150 mM NaCl, 5 mM CaCl2, 0.1% PEG-8000), 25 °C; fit to a model for tight binding
OG488-TFPIα-BR [2] = target: OG488-TFPIα-BR
FV-BR fragment (human) = FV-BR fragment (human) (UniProt P12259)
FV-BR fragment (human), sequence (P12259 979-1036): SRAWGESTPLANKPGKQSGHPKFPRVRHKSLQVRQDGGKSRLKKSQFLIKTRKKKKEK

Human FVa, sequence (P12259 29-737): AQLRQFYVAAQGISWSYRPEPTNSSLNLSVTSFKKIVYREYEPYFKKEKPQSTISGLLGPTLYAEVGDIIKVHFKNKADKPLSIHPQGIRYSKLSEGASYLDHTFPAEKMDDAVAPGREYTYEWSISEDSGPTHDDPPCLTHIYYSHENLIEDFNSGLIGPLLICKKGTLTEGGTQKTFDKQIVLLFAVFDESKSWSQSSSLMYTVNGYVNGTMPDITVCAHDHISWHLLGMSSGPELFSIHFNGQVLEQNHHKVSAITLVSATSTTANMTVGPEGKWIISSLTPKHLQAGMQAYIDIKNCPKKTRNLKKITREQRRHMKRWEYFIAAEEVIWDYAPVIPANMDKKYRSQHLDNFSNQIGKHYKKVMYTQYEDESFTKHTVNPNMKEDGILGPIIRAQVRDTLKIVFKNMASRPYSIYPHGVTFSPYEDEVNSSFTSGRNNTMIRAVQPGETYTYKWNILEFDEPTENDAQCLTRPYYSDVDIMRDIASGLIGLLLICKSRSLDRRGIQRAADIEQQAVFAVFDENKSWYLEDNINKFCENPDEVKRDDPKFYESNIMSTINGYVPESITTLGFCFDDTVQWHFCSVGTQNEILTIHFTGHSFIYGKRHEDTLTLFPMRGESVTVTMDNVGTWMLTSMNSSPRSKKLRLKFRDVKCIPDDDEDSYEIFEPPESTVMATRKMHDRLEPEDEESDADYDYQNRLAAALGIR
Human FVa, sequence (P12259 1574-2224): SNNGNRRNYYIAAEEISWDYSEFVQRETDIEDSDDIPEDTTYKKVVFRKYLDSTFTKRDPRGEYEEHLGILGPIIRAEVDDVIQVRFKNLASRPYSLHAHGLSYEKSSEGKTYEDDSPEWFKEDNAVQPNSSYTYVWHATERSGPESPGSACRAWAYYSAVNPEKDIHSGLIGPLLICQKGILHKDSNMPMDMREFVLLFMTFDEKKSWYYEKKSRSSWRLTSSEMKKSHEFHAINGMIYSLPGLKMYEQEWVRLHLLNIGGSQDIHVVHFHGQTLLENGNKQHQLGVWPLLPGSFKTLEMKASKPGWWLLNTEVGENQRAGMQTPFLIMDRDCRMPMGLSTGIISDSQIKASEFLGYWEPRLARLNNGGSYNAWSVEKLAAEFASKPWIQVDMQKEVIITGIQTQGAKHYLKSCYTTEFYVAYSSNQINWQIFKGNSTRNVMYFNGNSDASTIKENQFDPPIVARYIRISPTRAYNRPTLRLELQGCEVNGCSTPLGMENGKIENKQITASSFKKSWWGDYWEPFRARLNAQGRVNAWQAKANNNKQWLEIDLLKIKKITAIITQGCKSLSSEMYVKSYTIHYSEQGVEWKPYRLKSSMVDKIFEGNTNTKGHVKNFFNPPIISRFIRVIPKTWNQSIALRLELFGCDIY

| Substance | Kd (OG488-TFPIα-BR [1]) | stoichiometry N (OG488-TFPIα-BR [1]) | Reduced fold change of inactivation by APC, +TFPIα-BR (kobs no BR divided by kobs +BR; % peak thrombin in TGA; 20 nM FV species, 250 nM BR fragment, 1 nM APC) (OG488-TFPIα-BR [2]) | Reduced fold change of inactivation by APC, +FV-BR (kobs no BR divided by kobs +BR; % peak thrombin in TGA; 20 nM FV species, 250 nM BR fragment, 1 nM APC) (FV-BR fragment (human)) |
| --- | --- | --- | --- | --- |
| FV-810-R306Q | 2.15 nM | 1.44 mol/mol |  |  |
| FV-s46 (from UniProt P12259 29-990; P12259 1037-2224) | 2.17 nM | 1.78 mol/mol |  |  |
| FV-short (natural protein) |  |  |  | 15.7 fold |

The remaining lines, values ahead:

| Kd (OG488-TFPIα-BR [1]) | stoichiometry N (OG488-TFPIα-BR [1]) | Reduced fold change of inactivation by APC, +TFPIα-BR (kobs no BR divided by kobs +BR; % peak thrombin in TGA; 20 nM FV species, 250 nM BR fragment, 1 nM APC) (OG488-TFPIα-BR [2]) | Reduced fold change of inactivation by APC, +FV-BR (kobs no BR divided by kobs +BR; % peak thrombin in TGA; 20 nM FV species, 250 nM BR fragment, 1 nM APC) (FV-BR fragment (human)) | Substance |
| --- | --- | --- | --- | --- |
| 1.78 nM | 1.29 mol/mol | 17 fold | 17 fold | FV-810 |
| 2.46 nM | 1.18 mol/mol |  |  | FV-810-R306Q/R506Q |
| 1.72 nM | 1.43 mol/mol |  |  | FV-810-R506Q |
|  |  |  | 0.9 fold | Human FVa (from UniProt P12259 29-737; P12259 1574-2224) (complex) |
